The text below walks through data of patent US12679878B2, “CRF2 receptor agonists and their use in therapy” (SANOFI, priority 2020, dated 2026).

The target of this experiment is human corticotropin-releasing factor 2α (CRF2 α receptor) (human), Q13324. In words: cell-based or functional assay.

Starred links: 1 amine or outer side, 2 acyl side, 3 side chain; linkers in the order of their positions; H or OH if unused. Non-standard residues stand in square brackets, D forms with d. Groups on a side chain read outwards from the residue. No end group written: not given here. *: point of attachment. C20 diacid = O=C(O)CCCCCCCCCCCCCCCCCCC(=O)*; C18 diacid = O=C(O)CCCCCCCCCCCCCCCCC(=O)*; γGlu = O=C(O)[C@H](CCC(=O)[*:2])N[*:1]; Palmitoyl = CCCCCCCCCCCCCCCC(=O)*; AEEA = NCCOCCOCC(=O)O; Aib = CC(C)(N)C(=O)O

human corticotropin-releasing factor 2α (CRF2 α receptor) (human), Q13324, sequence (Q13324 20-411): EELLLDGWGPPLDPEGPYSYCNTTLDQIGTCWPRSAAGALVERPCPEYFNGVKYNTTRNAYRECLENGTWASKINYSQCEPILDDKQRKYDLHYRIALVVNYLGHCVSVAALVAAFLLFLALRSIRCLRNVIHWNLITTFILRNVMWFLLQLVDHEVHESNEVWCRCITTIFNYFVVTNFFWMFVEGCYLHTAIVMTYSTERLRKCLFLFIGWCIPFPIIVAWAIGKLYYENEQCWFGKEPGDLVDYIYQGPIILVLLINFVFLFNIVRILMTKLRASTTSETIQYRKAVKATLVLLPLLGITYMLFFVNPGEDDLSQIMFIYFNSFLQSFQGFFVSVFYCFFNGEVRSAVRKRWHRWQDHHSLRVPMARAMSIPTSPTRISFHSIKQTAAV

B1: SEQ ID NO: 173 (peptide)
peptide: IVLSLD[dV]PIKLK([AEEA-AEEA-γGlu-C20 diacid])QILLKQERQK[Aib]QREQAEKNKQILAQV-NH2
modifications: N-terminus assumed
SMILES: CC[C@H](C)[C@H](N)C(=O)N[C@H](C(=O)N[C@@H](CC(C)C)C(=O)N[C@@H](CO)C(=O)N[C@@H](CC(C)C)C(=O)N[C@@H](CC(=O)O)C(=O)N[C@@H](C(=O)N1CCC[C@H]1C(=O)N[C@H](C(=O)N[C@@H](CCCCN)C(=O)N[C@@H](CC(C)C)C(=O)N[C@@H](CCCCNC(=O)COCCOCCNC(=O)COCCOCCNC(=O)CC[C@H](NC(=O)CCCCCCCCCCCCCCCCCCC(=O)O)C(=O)O)C(=O)N[C@@H](CCC(N)=O)C(=O)N[C@H](C(=O)N[C@@H](CC(C)C)C(=O)N[C@@H](CC(C)C)C(=O)N[C@@H](CCCCN)C(=O)N[C@@H](CCC(N)=O)C(=O)N[C@@H](CCC(=O)O)C(=O)N[C@@H](CCCNC(=N)N)C(=O)N[C@@H](CCC(N)=O)C(=O)N[C@@H](CCCCN)C(=O)NC(C)(C)C(=O)N[C@@H](CCC(N)=O)C(=O)N[C@@H](CCCNC(=N)N)C(=O)N[C@@H](CCC(=O)O)C(=O)N[C@@H](CCC(N)=O)C(=O)N[C@@H](C)C(=O)N[C@@H](CCC(=O)O)C(=O)N[C@@H](CCCCN)C(=O)N[C@@H](CC(N)=O)C(=O)N[C@@H](CCCCN)C(=O)N[C@@H](CCC(N)=O)C(=O)N[C@H](C(=O)N[C@@H](CC(C)C)C(=O)N[C@@H](C)C(=O)N[C@@H](CCC(N)=O)C(=O)N[C@H](C(N)=O)C(C)C)[C@@H](C)CC)[C@@H](C)CC)[C@@H](C)CC)C(C)C)C(C)C
Take B1: the EC50 [nM], 0% HSA was found to be 0.03 nM and the EC50 [nM], 0.1% HSA was 3.49 nM.

B2: SEQ ID NO: 20 (peptide)
peptide: IVLSLD[dV]PTKLK([γGlu-Palmitoyl])QKLLKQERQRK[Aib]REQAEKNKRILERV-NH2
modifications: N-terminus assumed
SMILES: CCCCCCCCCCCCCCCC(=O)N[C@@H](CCC(=O)NCCCC[C@H](NC(=O)[C@H](CC(C)C)NC(=O)[C@H](CCCCN)NC(=O)[C@@H](NC(=O)[C@@H]1CCCN1C(=O)[C@H](NC(=O)[C@H](CC(=O)O)NC(=O)[C@H](CC(C)C)NC(=O)[C@H](CO)NC(=O)[C@H](CC(C)C)NC(=O)[C@@H](NC(=O)[C@@H](N)[C@@H](C)CC)C(C)C)C(C)C)[C@@H](C)O)C(=O)N[C@@H](CCC(N)=O)C(=O)N[C@@H](CCCCN)C(=O)N[C@@H](CC(C)C)C(=O)N[C@@H](CC(C)C)C(=O)N[C@@H](CCCCN)C(=O)N[C@@H](CCC(N)=O)C(=O)N[C@@H](CCC(=O)O)C(=O)N[C@@H](CCCNC(=N)N)C(=O)N[C@@H](CCC(N)=O)C(=O)N[C@@H](CCCNC(=N)N)C(=O)N[C@@H](CCCCN)C(=O)NC(C)(C)C(=O)N[C@@H](CCCNC(=N)N)C(=O)N[C@@H](CCC(=O)O)C(=O)N[C@@H](CCC(N)=O)C(=O)N[C@@H](C)C(=O)N[C@@H](CCC(=O)O)C(=O)N[C@@H](CCCCN)C(=O)N[C@@H](CC(N)=O)C(=O)N[C@@H](CCCCN)C(=O)N[C@@H](CCCNC(=N)N)C(=O)N[C@H](C(=O)N[C@@H](CC(C)C)C(=O)N[C@@H](CCC(=O)O)C(=O)N[C@@H](CCCNC(=N)N)C(=O)N[C@H](C(N)=O)C(C)C)[C@@H](C)CC)C(=O)O
With B2, the EC50 [nM], 0% HSA is 0.01 nM.

B3: SEQ ID NO: 175 (peptide)
peptide: IVLSLD[dV]PIKLK([AEEA-AEEA-γGlu-C20 diacid])QILLKQARQK[Aib]QRAQAEKNKRILERV-NH2
modifications: N-terminus assumed
SMILES: CC[C@H](C)[C@H](N)C(=O)N[C@H](C(=O)N[C@@H](CC(C)C)C(=O)N[C@@H](CO)C(=O)N[C@@H](CC(C)C)C(=O)N[C@@H](CC(=O)O)C(=O)N[C@@H](C(=O)N1CCC[C@H]1C(=O)N[C@H](C(=O)N[C@@H](CCCCN)C(=O)N[C@@H](CC(C)C)C(=O)N[C@@H](CCCCNC(=O)COCCOCCNC(=O)COCCOCCNC(=O)CC[C@H](NC(=O)CCCCCCCCCCCCCCCCCCC(=O)O)C(=O)O)C(=O)N[C@@H](CCC(N)=O)C(=O)N[C@H](C(=O)N[C@@H](CC(C)C)C(=O)N[C@@H](CC(C)C)C(=O)N[C@@H](CCCCN)C(=O)N[C@@H](CCC(N)=O)C(=O)N[C@@H](C)C(=O)N[C@@H](CCCNC(=N)N)C(=O)N[C@@H](CCC(N)=O)C(=O)N[C@@H](CCCCN)C(=O)NC(C)(C)C(=O)N[C@@H](CCC(N)=O)C(=O)N[C@@H](CCCNC(=N)N)C(=O)N[C@@H](C)C(=O)N[C@@H](CCC(N)=O)C(=O)N[C@@H](C)C(=O)N[C@@H](CCC(=O)O)C(=O)N[C@@H](CCCCN)C(=O)N[C@@H](CC(N)=O)C(=O)N[C@@H](CCCCN)C(=O)N[C@@H](CCCNC(=N)N)C(=O)N[C@H](C(=O)N[C@@H](CC(C)C)C(=O)N[C@@H](CCC(=O)O)C(=O)N[C@@H](CCCNC(=N)N)C(=O)N[C@H](C(N)=O)C(C)C)[C@@H](C)CC)[C@@H](C)CC)[C@@H](C)CC)C(C)C)C(C)C
Turning to B3, the EC50 [nM], 0% HSA was determined as 0.06 nM and the EC50 [nM], 0.1% HSA was found to be 3.64 nM.

B4: SEQ ID NO: 172 (peptide)
peptide: IVLSLD[dV]PIKLK([AEEA-AEEA-γGlu-γGlu-C20 diacid])QILLKQERQK[Aib]QREQAEKNKQILAQV-NH2
modifications: N-terminus assumed
SMILES: CC[C@H](C)[C@H](N)C(=O)N[C@H](C(=O)N[C@@H](CC(C)C)C(=O)N[C@@H](CO)C(=O)N[C@@H](CC(C)C)C(=O)N[C@@H](CC(=O)O)C(=O)N[C@@H](C(=O)N1CCC[C@H]1C(=O)N[C@H](C(=O)N[C@@H](CCCCN)C(=O)N[C@@H](CC(C)C)C(=O)N[C@@H](CCCCNC(=O)COCCOCCNC(=O)COCCOCCNC(=O)CC[C@H](NC(=O)CC[C@H](NC(=O)CCCCCCCCCCCCCCCCCCC(=O)O)C(=O)O)C(=O)O)C(=O)N[C@@H](CCC(N)=O)C(=O)N[C@H](C(=O)N[C@@H](CC(C)C)C(=O)N[C@@H](CC(C)C)C(=O)N[C@@H](CCCCN)C(=O)N[C@@H](CCC(N)=O)C(=O)N[C@@H](CCC(=O)O)C(=O)N[C@@H](CCCNC(=N)N)C(=O)N[C@@H](CCC(N)=O)C(=O)N[C@@H](CCCCN)C(=O)NC(C)(C)C(=O)N[C@@H](CCC(N)=O)C(=O)N[C@@H](CCCNC(=N)N)C(=O)N[C@@H](CCC(=O)O)C(=O)N[C@@H](CCC(N)=O)C(=O)N[C@@H](C)C(=O)N[C@@H](CCC(=O)O)C(=O)N[C@@H](CCCCN)C(=O)N[C@@H](CC(N)=O)C(=O)N[C@@H](CCCCN)C(=O)N[C@@H](CCC(N)=O)C(=O)N[C@H](C(=O)N[C@@H](CC(C)C)C(=O)N[C@@H](C)C(=O)N[C@@H](CCC(N)=O)C(=O)N[C@H](C(N)=O)C(C)C)[C@@H](C)CC)[C@@H](C)CC)[C@@H](C)CC)C(C)C)C(C)C
B4: the EC50 [nM], 0% HSA was 0.04 nM and the EC50 [nM], 0.1% HSA turned out to be 2.76 nM.

B5: SEQ ID NO: 176 (peptide)
peptide: IVLSLD[dV]PIKLK([AEEA-AEEA-γGlu-γGlu-C18 diacid])QILLKQERQKKQRQQAEKNKQILAQV-NH2
modifications: N-terminus assumed
SMILES: CC[C@H](C)[C@H](N)C(=O)N[C@H](C(=O)N[C@@H](CC(C)C)C(=O)N[C@@H](CO)C(=O)N[C@@H](CC(C)C)C(=O)N[C@@H](CC(=O)O)C(=O)N[C@@H](C(=O)N1CCC[C@H]1C(=O)N[C@H](C(=O)N[C@@H](CCCCN)C(=O)N[C@@H](CC(C)C)C(=O)N[C@@H](CCCCNC(=O)COCCOCCNC(=O)COCCOCCNC(=O)CC[C@H](NC(=O)CC[C@H](NC(=O)CCCCCCCCCCCCCCCCC(=O)O)C(=O)O)C(=O)O)C(=O)N[C@@H](CCC(N)=O)C(=O)N[C@H](C(=O)N[C@@H](CC(C)C)C(=O)N[C@@H](CC(C)C)C(=O)N[C@@H](CCCCN)C(=O)N[C@@H](CCC(N)=O)C(=O)N[C@@H](CCC(=O)O)C(=O)N[C@@H](CCCNC(=N)N)C(=O)N[C@@H](CCC(N)=O)C(=O)N[C@@H](CCCCN)C(=O)N[C@@H](CCCCN)C(=O)N[C@@H](CCC(N)=O)C(=O)N[C@@H](CCCNC(=N)N)C(=O)N[C@@H](CCC(N)=O)C(=O)N[C@@H](CCC(N)=O)C(=O)N[C@@H](C)C(=O)N[C@@H](CCC(=O)O)C(=O)N[C@@H](CCCCN)C(=O)N[C@@H](CC(N)=O)C(=O)N[C@@H](CCCCN)C(=O)N[C@@H](CCC(N)=O)C(=O)N[C@H](C(=O)N[C@@H](CC(C)C)C(=O)N[C@@H](C)C(=O)N[C@@H](CCC(N)=O)C(=O)N[C@H](C(N)=O)C(C)C)[C@@H](C)CC)[C@@H](C)CC)[C@@H](C)CC)C(C)C)C(C)C
As for B5, the EC50 [nM], 0% HSA was found to be 0.11 nM and the EC50 [nM], 0.1% HSA turned out to be 3.05 nM.

B6: SEQ ID NO: 174 (peptide)
peptide: IVLSLD[dV]PIKLK([AEEA-AEEA-γGlu-γGlu-C18 diacid])QILLKQARQK[Aib]QRAQAEKNKRILERV-NH2
modifications: N-terminus assumed
SMILES: CC[C@H](C)[C@H](N)C(=O)N[C@H](C(=O)N[C@@H](CC(C)C)C(=O)N[C@@H](CO)C(=O)N[C@@H](CC(C)C)C(=O)N[C@@H](CC(=O)O)C(=O)N[C@@H](C(=O)N1CCC[C@H]1C(=O)N[C@H](C(=O)N[C@@H](CCCCN)C(=O)N[C@@H](CC(C)C)C(=O)N[C@@H](CCCCNC(=O)COCCOCCNC(=O)COCCOCCNC(=O)CC[C@H](NC(=O)CC[C@H](NC(=O)CCCCCCCCCCCCCCCCC(=O)O)C(=O)O)C(=O)O)C(=O)N[C@@H](CCC(N)=O)C(=O)N[C@H](C(=O)N[C@@H](CC(C)C)C(=O)N[C@@H](CC(C)C)C(=O)N[C@@H](CCCCN)C(=O)N[C@@H](CCC(N)=O)C(=O)N[C@@H](C)C(=O)N[C@@H](CCCNC(=N)N)C(=O)N[C@@H](CCC(N)=O)C(=O)N[C@@H](CCCCN)C(=O)NC(C)(C)C(=O)N[C@@H](CCC(N)=O)C(=O)N[C@@H](CCCNC(=N)N)C(=O)N[C@@H](C)C(=O)N[C@@H](CCC(N)=O)C(=O)N[C@@H](C)C(=O)N[C@@H](CCC(=O)O)C(=O)N[C@@H](CCCCN)C(=O)N[C@@H](CC(N)=O)C(=O)N[C@@H](CCCCN)C(=O)N[C@@H](CCCNC(=N)N)C(=O)N[C@H](C(=O)N[C@@H](CC(C)C)C(=O)N[C@@H](CCC(=O)O)C(=O)N[C@@H](CCCNC(=N)N)C(=O)N[C@H](C(N)=O)C(C)C)[C@@H](C)CC)[C@@H](C)CC)[C@@H](C)CC)C(C)C)C(C)C
For B6, the EC50 [nM], 0% HSA was 0.07 nM and the EC50 [nM], 0.1% HSA was determined as 0.88 nM.
